Experimental data reported in patent publication US12226490B2, “Anti-ROR1 antibody conjugates, compositions comprising anti ROR1 antibody conjugates, and methods of making and using anti-ROR1 antibody conjugates preliminary class” (Sutro Biopharma, Inc., priority 2022, dated 2025).
Numbering of substitutions follows the chain as printed.

Legend:
ROR1 negative MCF7 cells = experiment: In vitro cell killing of ROR1 ADCs, ROR1 negative cells (Cell Titer-Glo, 120 hours); assay type: cell-based, human; conditions: Table 13
From the text: (§1) Ntera-2, MDA-MB-231, MCF7, HCT116 and Mino cells were obtained from ATCC. HCT116-hRor1-D02 clone was generated by transfecting HCT116 cells with a plasmid containing human Ror1 cDNA sequence and selected for highest stable expression of hRor1 on the cell surface. MDA-MB-231, MCF7, HCT116 and HCT116-Ror1 cell were maintained in Ham's F-12 high glucose DMEM (50-50) (Cellgro-Mediatech; Manassas, VA) supplemented with 10% heat-inactivated fetal bovine serum (Hyclone; Thermo Scientific; Waltham, MA), 1% Penicillin/Streptomycin (Cellgro-Mediatech; Manassas, VA) and 2 mmol/L-glutamax (Life Technology; Carlsbad, CA). Mino cells were maintained in RPMI-1640 medium (Cellgro-Mediatech; Manassas, VA) supplemented with 20% heat-inactivated fetal bovine serum (Hyclone; Thermo Scientific; Waltham, MA), 1% Penicillin/Streptomycin (Cellgro-Mediatech; Manassas, VA) and 2 mmol/L-glutamax (Life Technology; Carlsbad, CA).
(§2) Anti-ROR1 antibody was conjugated to different linker-warheads described herein at different DARs and the cell killing activity of the ADCs were evaluated on ROR1 positive Ntera-2 cell and ROR1 negative MCF7 cells.
(§3) Ntera-2 or MCF7 cell at 625 cells/25 μL were seeded in a 384-well flat bottom white polystyrene plate one day before the assay start. ADCs were formulated at 2× starting concentration. Filter sterilized samples were serial diluted (1:3) under sterile conditions and added onto cells in triplicates. Plates were cultured at 37° C. in a CO2 incubator for 120 hours. […] Relative luminescence was measured on an ENVISION® plate reader (Perkin-Elmer; Waltham, MA). Relative luminescence readings were converted to % viability using untreated cells as controls. […]
(§4) To evaluate if the cell killing activity of anti-ROR1 ADCs is dependent on antibody binding to ROR1 expressed on cell surface, the same linker-warheads (LP3, LP4) were conjugated to an anti-GFP antibody and the cell killing of the anti-ROR1 and anti-GFP ADCs were evaluated in cell killing assays on ROR1 positive Ntera-2 cell and ROR1 negative MCF7 cells.

[1] = system: ROR1 positive Ntera-2 cell; experiment: In vitro cell killing of ROR1 ADCs, ROR1 positive cells (Cell Titer-Glo, 120 hours); assay type: cell-based, human; conditions: Table 13
From the text: as §1, §2, §3, §4

human ROR1-Fz = target: T1, human ROR1-Fz (Homo sapiens, UniProt Q01973); experiment: Biacore off-rate and kinetic analysis, ROR1 frizzled domain; assay type: binding; conditions: Table 11 (SP34 light chain)
T1 construct: Frizzled (Fz, residues 165-305); HIS6 (C); purchased Acro Biosystems; host or cells: HEK293
Description: Anti-Fc polyclonal antibodies were immobilized onto a CM5 chip (GE Life Sciences) using amine coupling chemistry (from Amine Coupling Kit, GE Life Sciences). The immobilization steps were carried out at a flow rate of 25 μL/min in 1×HBS-EP+ buffer (GE Life Sciences; 10× Stock diluted before use). The sensor surfaces were activated for 7 min with a mixture of NHS (0.05 M) and EDC (0.2 M). The Anti-Fc antibodies were injected over all 4 flow cells at a concentration of 25 ug/ml in 10 mM sodium acetate, pH 4.5, for 7 min. Ethanolamine (1 M, pH 8.5) was injected for 7 min to block any remaining activated groups. An average of 12,000 response units (RU) of capture antibody was immobilized on each flow cell.
Off-rate and kinetic binding experiments were performed at 25° C. using 1×HBS-EP+ buffer. Test and control antibodies were injected over the anti-Fc surface at concentrations of 5-10 μg/mL for 12 seconds at a flow rate of 10 μL/min on flow cells 2, 3 and 4, followed by a buffer wash for 30 seconds at the same flow rate. Kinetic characterization of antibody samples was carried out with a range of antigen concentrations from 1-100 nM and 1 injection of 0 nM antigen (for example, 100, 50, 25, 6.25, 1.56 and 0 nM). After capturing ligand (antibody) on the anti-Fc surface, the analyte (hROR1, Fz or Kr domains, Acro Biosystems, Delaware) was bound for 180 seconds, followed by a 600 second dissociation phase at a flow rate of 50 μL/min. Between each ligand capture and analyte binding cycle, regeneration was carried out using 2 injections of 10 mM Glycine pH 2.0 for 30 seconds at 30 μL/min, followed by a 30 second buffer wash step.
The data was fit with the Biacore T200 Evaluation software, using a 1-1 Langmuir binding model. KD (affinity, nM) was determined as a ratio of the kinetic rate constants calculated from the fits of the association and dissociation phases.
For anti-CD3-LC-containing IgGs that had detectable ROR1-binding in ELISA (1944-A07 and 1987-C05 variants), those antibodies were further tested for binding by surface plasmon resonance (SPR). Binding kinetics were assessed to the ROR1-frizzled domain (hROR1-Fz) or the ROR1-extracellular domain (hROR1) for 1944-A07 and 1987-C05 variants, respectively. Briefly, anti-ROR1 antibodies were captured via anti-human Fc polyclonal antibodies immobilized to a CM5 chip, and ROR1 recombinant proteins were flowed across the surface to assess binding kinetics. hROR1 or hROR1-Fz domain (Acro Biosystems, Delaware) binding was tested at 100, 50, 25, 6.25, 1.5625 nM. The data was fit with the Biacore™ T200 Evaluation software, using a 1-1 Langmuir binding model. KD (affinity, nM) was determined as a ratio of the kinetic rate constants calculated from the fits of the association and dissociation phases.

[2] = Differential scanning fluorimetry (protein thermal shift; TM1 Fc, TM2 Fab); assay type: physicochemical; conditions: melting temperature of the Fab domain; Table 11
Description: A protein thermal shift assay was carried out by mixing the protein to be assayed with an environmentally sensitive dye (SYPRO Orange, Life Technologies Cat #S-6650) in a phosphate buffered solution (PBS), and monitoring the fluorescence of the mixture in real time as it underwent controlled thermal denaturation. Protein solutions between 0.2-2 mg/mL were mixed at a 1-1 volumetric ratio with a 1-500 PBS-diluted solution of SYPRO Orange (SYPRO Orange stock dye is 5000× in DMSO). 10 μL aliquots of the protein-dye mixture were dispensed in quadruplicate in a 384-well microplate (Bio-Rad Cat #MSP-3852), and the plate was sealed with an optically clear sealing film (Bio-Rad Cat #MSB-1001) and placed in a 384-well plate real-time thermocycler (Bio-Rad CFX384 Real Time System). The protein-dye mixture was heated from 25° C. to 95° C., at increments of 0.1° C. per cycle (˜1.5° C. per minute), allowing 3 seconds of equilibration at each temperature before taking a fluorescence measurement. At the end of the experiment, the transition melting temperatures (TM1 and TM2) were determined using the Bio-Rad CFX manager software. TM1 represents the melting temperature of the Fc domain. TM2 represents the melting temperature of the Fab domain.
For the thermal stability of an antibody, the first melting peak (Tm1) coincides with the unfolding of the CH2 domain (FC stability), while the second melting peak (Tm2) occurs upon unfolding of the Fab domain.

T1 sequence (Q01973 165-305): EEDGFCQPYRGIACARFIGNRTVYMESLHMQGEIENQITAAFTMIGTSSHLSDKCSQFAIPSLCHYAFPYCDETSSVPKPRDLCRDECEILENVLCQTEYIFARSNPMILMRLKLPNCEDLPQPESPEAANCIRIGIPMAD

With COc1cccc2c1C(=O)c1c(O)c3c(c(O)c1C2=O)C[C@@](O)(C(=O)NCCN)C[C@@H]3O[C@H]1C[C@H]2[C@H](O[C@@H]3[C@@H](OC)OCCN32)[C@H](C)O1 [PNU-EDA] the “MCF-7 Span” value (ROR1 negative MCF7 cells) was 85% and the “NTERA-2 Span” value [1] was 99%.

In the case of CC[C@@]1(O)C(=O)OCc2c1cc1n(c2=O)Cc2c-1nc1cc(F)c(C)c3c1c2[C@@H](NC(=O)CO)CC3 [Dxd], the “MCF-7 Span” value (ROR1 negative MCF7 cells) is reported as 63% and the “NTERA-2 Span” value [1] is reported as 99%.

B1: SRP2196-B08 (antibody, V domains shown)
VH: EVQLVESGGGLVQPGGSLRLSCAASGFNITGYYIHWVRQAPGKGLEWVGQISPNSGYTYLADSVKGRFTISADTSKNTAYLQMNSLRAEDTAVYYCARDSRRYVRGWDYWGQGTLVTVSS
VL: QAVVTQESALTTSPGETVTLTCRSSTGAVTTSNYANWVQEKPDHLFTGLIGGTNKRAPGVPARFSGSLIGDKAALTITGAQTEDEAIYFCALWYSNLWVFGGGTKLTVL
In the case of B1, the “Biacore human ROR1-Fz ka” value (human ROR1-Fz) is reported as 156000 M⁻¹ s⁻¹, the “Biacore human ROR1-Fz kd” value (human ROR1-Fz) is reported as 0.000488 s⁻¹ and the TM2 [2] is reported as 75 °C.

B2: SRP2196-B09 (antibody, V domains shown)
VH: B1 VH with G15E, G31E, Q50Y, Y57S, L60Y, G106S
VL: B1 VL
In the case of B2, the “Biacore human ROR1-Fz ka” value (human ROR1-Fz) is reported as 130000 M⁻¹ s⁻¹, the “Biacore human ROR1-Fz kd” value (human ROR1-Fz) is reported as 0.000427 s⁻¹ and the TM2 [2] is reported as 72 °C.

B3: SRP2196-C04 (antibody, V domains shown)
VH: B1 VH with Q50F, S52A, N54L, Y57S, Y59H, L60N, D99E, R105N, G106P
VL: B1 VL
With B3 the “Biacore human ROR1-Fz ka” value (human ROR1-Fz) was 131000 M⁻¹ s⁻¹, the “Biacore human ROR1-Fz kd” value (human ROR1-Fz) was 0.000704 s⁻¹ and the TM2 [2] was 70 °C.

B4: SRP2196-B11 (antibody, V domains shown)
VH: B1 VH with K43R, L60Y, V104I, G106S
VL: B1 VL
In the case of B4, the “Biacore human ROR1-Fz ka” value (human ROR1-Fz) is reported as 137000 M⁻¹ s⁻¹, the “Biacore human ROR1-Fz kd” value (human ROR1-Fz) is reported as 0.000597 s⁻¹ and the TM2 [2] is reported as 74 °C.

B5: SRP2196-C01 (antibody, V domains shown)
VH: B1 VH with T30I, Q50S, S52T, N54L, Y57A, Y59S, L60K, V104I, G106S
VL: B1 VL
For B5, the “Biacore human ROR1-Fz ka” value (human ROR1-Fz) was 125000 M⁻¹ s⁻¹, the “Biacore human ROR1-Fz kd” value (human ROR1-Fz) was 0.000457 s⁻¹ and the TM2 [2] was 70 °C.

B6: SRP2196-C02 (antibody, V domains shown)
VH: B1 VH with Y33H, Q50F, Y57W, L60S, G106P, W107F
VL: B1 VL
In the case of B6, the “Biacore human ROR1-Fz ka” value (human ROR1-Fz) is reported as 119000 M⁻¹ s⁻¹, the “Biacore human ROR1-Fz kd” value (human ROR1-Fz) is reported as 0.00036 s⁻¹ and the TM2 [2] is reported as 67 °C.

B7: SRP2196-C03 (antibody, V domains shown)
VH: B1 VH with Y57S, L60S, N84S, R105L, G106S
VL: B1 VL
In the case of B7, the “Biacore human ROR1-Fz ka” value (human ROR1-Fz) is reported as 143000 M⁻¹ s⁻¹, the “Biacore human ROR1-Fz kd” value (human ROR1-Fz) is reported as 0.000461 s⁻¹ and the TM2 [2] is reported as 69 °C.

B8: SRP2196-B10 (antibody, V domains shown)
VH: B1 VH with Q50S, S52T, N54L, Y57A, Y59S, L60K, V104I, G106S
VL: B1 VL
For B8, the “Biacore human ROR1-Fz ka” value (human ROR1-Fz) was 128000 M⁻¹ s⁻¹, the “Biacore human ROR1-Fz kd” value (human ROR1-Fz) was 0.000334 s⁻¹ and the TM2 [2] was 70 °C.
